Data: the Immune Epitope Database (IEDB)

How the values were obtained:
[1] = target: HLA-A*02:11; test: IEDB peptide-MHC binding, purified MHC/direct/fluorescence; filed as Kd, often an IC50 or EC50 that approximates it; ≥ and ≤ were set here for values at or beyond the usual limits of such assays; settings: source organism: Bacillus cereus G9842
[2] = target: HLA-A*02:03; test: as above; settings: source organism: Bacillus cereus G9842
[3] = target: HLA-A*02:19; test: as above; settings: source organism: Bacillus cereus G9842
[4] = target: HLA-A*02:12; test: as above; settings: source organism: Bacillus cereus G9842
[5] = target: HLA-A*02:16; test: as above; settings: source organism: Bacillus cereus G9842
[6] = target: HLA-A*11:01; test: as above
[7] = target: HLA-A*26:01; test: IEDB peptide-MHC binding, purified MHC/competitive/fluorescence; filed as Kd, often an IC50 or EC50 that approximates it; ≥ and ≤ were set here for values at or beyond the usual limits of such assays; settings: source organism: Bacillus anthracis str. A0488
[8] = target: HLA-B*18:01; test: as above; settings: source organism: Bacillus anthracis str. A0488
[9] = target: HLA-B*15:17; test: as above; settings: source organism: Bacillus anthracis str. A0488
[10] = target: HLA-B*46:01; test: as above; settings: source organism: Bacillus anthracis str. A0488
[11] = target: HLA-B*51:01; test: as above; settings: source organism: Bacillus anthracis str. A0488
[12] = target: HLA-B*57:01; test: as above; settings: source organism: Bacillus anthracis str. A0488
[13] = target: HLA-B*39:01; test: as above
[14] = target: HLA-A*02:01; test: as above
[15] = target: HLA-B*27:03; test: as above; settings: source organism: Bacillus anthracis str. A0488
[16] = target: HLA-B*15:09; test: IEDB peptide-MHC binding, purified MHC/direct/fluorescence; filed as Kd, often an IC50 or EC50 that approximates it; ≥ and ≤ were set here for values at or beyond the usual limits of such assays
[17] = target: HLA-A*02:03; test: IEDB peptide-MHC binding, purified MHC/competitive/fluorescence; filed as Kd, often an IC50 or EC50 that approximates it; ≥ and ≤ were set here for values at or beyond the usual limits of such assays; settings: source organism: Homo sapiens
[18] = target: HLA-A*69:01; test: as above
[19] = target: HLA-B*40:01; test: IEDB peptide-MHC binding, purified MHC/direct/fluorescence; filed as Kd, often an IC50 or EC50 that approximates it; ≥ and ≤ were set here for values at or beyond the usual limits of such assays; settings: source organism: Cowpox virus
[20] = target: HLA-A*01:01; test: as above; settings: source organism: Cowpox virus
[21] = target: HLA-A*26:01; test: as above; settings: source organism: Variola virus
[22] = target: HLA-B*46:01; test: as above; settings: source organism: Cowpox virus
[23] = target: HLA-A*03:01; test: as above; settings: source organism: Cowpox virus
[24] = target: HLA-A*31:01; test: as above; settings: source organism: Cowpox virus
[25] = target: HLA-B*48:01; test: as above; settings: source organism: Cowpox virus
[26] = target: HLA-B*58:01; test: as above; settings: source organism: Variola virus
[27] = target: HLA-C*05:01; test: as above; settings: source organism: Vaccinia virus Copenhagen
[28] = target: HLA-B*27:05; test: as above; settings: source organism: Cowpox virus
[29] = target: HLA-B*57:01; test: as above; settings: source organism: Cowpox virus
[30] = target: HLA-B*39:01; test: as above; settings: source organism: Variola virus
[31] = target: HLA-B*08:01; test: as above; settings: source organism: Variola virus
[32] = target: HLA-B*15:01; test: IEDB peptide-MHC binding, purified MHC/competitive/fluorescence; filed as Kd, often an IC50 or EC50 that approximates it; ≥ and ≤ were set here for values at or beyond the usual limits of such assays; settings: source organism: Vaccinia virus Copenhagen
[33] = source organism: Bacillus anthracis str. A0488
[34] = source organism: Vaccinia virus Copenhagen

Sequence MFKNFPFFK has a Kd [1] of no less than 20 µM, a Kd [2] of no less than 20 µM and a Kd [3] of no less than 20 µM. For the same sequence, the Kd [4] was no less than 20 µM, the Kd [5] was no less than 20 µM and the Kd ([6]; source organism: Bacillus cereus G9842) was no more than 0.001 µM. It also gave a Kd [7] of no less than 20 µM, a Kd [8] of no less than 20 µM and a Kd [9] of no less than 20 µM. The Kd [10] was no less than 20 µM, the Kd [11] was no less than 20 µM and the Kd [12] was no less than 20 µM. The Kd [13, 33] was no less than 20 µM, the Kd [14, 33] was no less than 20 µM and the Kd [15] was no less than 20 µM.

SRAGISVVL gave a Kd ([16]; source organism: Salmonella enterica subsp. enterica serovar Typhimurium str. LT2) of 0.207 µM and a Kd ([13]; source organism: Serratia marcescens) of 0.0047 µM.

Sequence YQGSYGFRL has a Kd [17] of 2.14 µM, a Kd ([14]; source organism: Homo sapiens) of 0.013 µM and a Kd ([18]; source organism: Homo sapiens) of no less than 20 µM.

Sequence YTDLTYQSF has a Kd [19] of no less than 20 µM, a Kd [20] of 0.019 µM and a Kd [21] of 0.233 µM. It also gave a Kd [22] of no less than 20 µM, a Kd [23] of no less than 20 µM and a Kd [24] of no less than 20 µM. It also gave a Kd [25] of no less than 20 µM, a Kd [26] of 0.083 µM and a Kd [27] of no more than 0.001 µM. The Kd ([16]; source organism: Variola virus) was no less than 20 µM, the Kd [28] was no less than 20 µM and the Kd [29] was 3.76 µM. For the same sequence, the Kd [30] was no less than 20 µM, the Kd [31] was no less than 20 µM and the Kd ([6]; source organism: Cowpox virus) was no less than 20 µM. For the same sequence, the Kd [32] was 2.64 µM, the Kd [14, 34] was no less than 20 µM and the Kd [18, 34] was no less than 20 µM.
